Data published in US20230220042A1 (SHANGHAI JIAO TONG UNIVERSITY SCHOOL OF MEDICINE, published 2023).

T1: Biotin-FcγRIIB (human FcγRIIB, Sino Biological) (human, UniProt P31994 43-217, limits assumed, biotin-labeled)
T1 construct: Used at 1 µg/ml with Streptavidin-APC for flow cytometry and sorting; also called CD32b
T1 sequence (looked up): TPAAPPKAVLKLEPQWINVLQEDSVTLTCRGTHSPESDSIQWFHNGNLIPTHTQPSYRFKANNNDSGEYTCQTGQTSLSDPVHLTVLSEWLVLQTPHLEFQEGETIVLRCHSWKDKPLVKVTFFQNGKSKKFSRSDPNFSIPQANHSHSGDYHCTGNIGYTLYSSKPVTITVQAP

T2: Biotin-FcγRIIB (human, UniProt P31994 43-217, limits assumed, biotin-labelled)
T2 construct: Bought, biotin-labelled; used at 1 µg/ml for staining and sorting; also called human FcγRIIB; CD32b
T2 sequence (looked up): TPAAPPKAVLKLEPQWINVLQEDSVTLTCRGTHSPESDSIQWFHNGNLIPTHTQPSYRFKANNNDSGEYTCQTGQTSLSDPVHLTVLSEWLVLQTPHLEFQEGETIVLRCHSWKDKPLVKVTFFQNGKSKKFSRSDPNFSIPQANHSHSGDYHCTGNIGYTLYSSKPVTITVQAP


How the values were obtained:
[1] = target: T1, Biotin-FcγRIIB (human FcγRIIB, Sino …); assay: NGS after FACS sort of 3T3-displayed Library4 for biotin-FcγRIIB binding
Biotin-FcγRIIB [2] = target: T2, Biotin-FcγRIIB; assay: FACS sorting of displayed Fc library on biotin-FcγRIIB, NGS
Biotin-FcγRIIB [3] = target: T2, Biotin-FcγRIIB; assay: FACS sorting of displayed Fc library on biotin-FcγRIIB, NGS; reference P271G

| Binder | Enrichment factor (percentage after sorting/percentage before sorting) [1] | Increased factor (enrichment factor/wild-type enrichment factor) [1] | Enrichment factor (after/before sorting) (Biotin-FcγRIIB [2]) | Increased factor a (enrichment factor/wild-type enrichment factor) (Biotin-FcγRIIB [2]) | Increased factor 2 c Site 1 (combined/point mutation) (Biotin-FcγRIIB [3]) |
| --- | --- | --- | --- | --- | --- |
| human IgG2 anti-mouse CD40 surface displayed antibody, L328F (antibody, name in EU numbering, m1 with this Fc mutation (Eu numbering); copies: 2 + 2) light chain (with the P2A rest): DTVLTQSPALAVSPGERVTISCRASDSVSTLMHWYQQKPGQQPKLLIYLASHLESGVPARFSGSGSGTDFTLTIDPVEADDTATYYCQQSWNDPWTFGGGTKLELKRTVAAPSVFIFPPSDEQLKSGTASVVCLLNNFYPREAKVQWKVDNALQSGNSQESVTEQDSKDSTYSLSSTLTLSKADYEKHKVYACEVTHQGLSSPVTKSFNRGECGSGATNFSLLKQAGDVEENPG heavy chain: EVQLVESDGGLVQPGRSLKLPCAASGFTFSDYYMAWVRQAPTKGLEWVASISYDGSSTYYRDSVKGRFTISRDNAKSTLYLQMDSLRSEDTATYYCGRHSSYFDYWGQGVMVTVSSASTKGPSVFPLAPCSRSTSESTAALGCLVKDYFPEPVTVSWNSGALTSGVHTFPAVLQSSGLYSLSSVVTVPSSNFGTQTYTCNVDHKPSNTKVDKTVERKCCVECPPCPAPPVAGPSVFLFPPKPKDTLMISRTPEVTCVVVDVSHEDPEVQFNWYVDGVEVHNAKTKPREEQFNSTFRVVSVLTVVHQDWLNGKEYKCKVSNKGFPAPIEKTISKTKGQPREPQVYTLPPSREEMTKNQVSLTCLVKGFYPSDIAVEWESNGQPENNYKTTPPMLDSDGSFFLYSKLTVDKSRWQQGNVFSCSVMHEALHNHYTQKSLSLSPGKLEPPPSTVSNMATVAVLVVLGAAIVTGAVVAFVMKMRRRNTGGKGGDYALAPGSQTSDLSLPDCKVMVHDPHSLA | 563 | 377 |  |  |  |
| human IgG2 anti-mouse CD40 surface displayed antibody, L328W (antibody, name in EU numbering, m1 with this Fc mutation (Eu numbering); Not the anti-human OX40 antibody Mut_1, which carries the same Fc mutation; copies: 2 + 2) light chain (with the P2A rest): DTVLTQSPALAVSPGERVTISCRASDSVSTLMHWYQQKPGQQPKLLIYLASHLESGVPARFSGSGSGTDFTLTIDPVEADDTATYYCQQSWNDPWTFGGGTKLELKRTVAAPSVFIFPPSDEQLKSGTASVVCLLNNFYPREAKVQWKVDNALQSGNSQESVTEQDSKDSTYSLSSTLTLSKADYEKHKVYACEVTHQGLSSPVTKSFNRGECGSGATNFSLLKQAGDVEENPG heavy chain: EVQLVESDGGLVQPGRSLKLPCAASGFTFSDYYMAWVRQAPTKGLEWVASISYDGSSTYYRDSVKGRFTISRDNAKSTLYLQMDSLRSEDTATYYCGRHSSYFDYWGQGVMVTVSSASTKGPSVFPLAPCSRSTSESTAALGCLVKDYFPEPVTVSWNSGALTSGVHTFPAVLQSSGLYSLSSVVTVPSSNFGTQTYTCNVDHKPSNTKVDKTVERKCCVECPPCPAPPVAGPSVFLFPPKPKDTLMISRTPEVTCVVVDVSHEDPEVQFNWYVDGVEVHNAKTKPREEQFNSTFRVVSVLTVVHQDWLNGKEYKCKVSNKGWPAPIEKTISKTKGQPREPQVYTLPPSREEMTKNQVSLTCLVKGFYPSDIAVEWESNGQPENNYKTTPPMLDSDGSFFLYSKLTVDKSRWQQGNVFSCSVMHEALHNHYTQKSLSLSPGKLEPPPSTVSNMATVAVLVVLGAAIVTGAVVAFVMKMRRRNTGGKGGDYALAPGSQTSDLSLPDCKVMVHDPHSLA | 33.2 | 22.2 |  |  |  |
| human IgG2 anti-mouse CD40 surface displayed antibody, Fc mutant P271G/P329S (antibody, name in EU numbering, as m1; positions are Eu numbers; copies: 2 + 2) light chain (with the P2A rest): DTVLTQSPALAVSPGERVTISCRASDSVSTLMHWYQQKPGQQPKLLIYLASHLESGVPARFSGSGSGTDFTLTIDPVEADDTATYYCQQSWNDPWTFGGGTKLELKRTVAAPSVFIFPPSDEQLKSGTASVVCLLNNFYPREAKVQWKVDNALQSGNSQESVTEQDSKDSTYSLSSTLTLSKADYEKHKVYACEVTHQGLSSPVTKSFNRGECGSGATNFSLLKQAGDVEENPG heavy chain: EVQLVESDGGLVQPGRSLKLPCAASGFTFSDYYMAWVRQAPTKGLEWVASISYDGSSTYYRDSVKGRFTISRDNAKSTLYLQMDSLRSEDTATYYCGRHSSYFDYWGQGVMVTVSSASTKGPSVFPLAPCSRSTSESTAALGCLVKDYFPEPVTVSWNSGALTSGVHTFPAVLQSSGLYSLSSVVTVPSSNFGTQTYTCNVDHKPSNTKVDKTVERKCCVECPPCPAPPVAGPSVFLFPPKPKDTLMISRTPEVTCVVVDVSHEDGEVQFNWYVDGVEVHNAKTKPREEQFNSTFRVVSVLTVVHQDWLNGKEYKCKVSNKGLSAPIEKTISKTKGQPREPQVYTLPPSREEMTKNQVSLTCLVKGFYPSDIAVEWESNGQPENNYKTTPPMLDSDGSFFLYSKLTVDKSRWQQGNVFSCSVMHEALHNHYTQKSLSLSPGKLEPPPSTVSNMATVAVLVVLGAAIVTGAVVAFVMKMRRRNTGGKGGDYALAPGSQTSDLSLPDCKVMVHDPHSLA |  |  | 46.2 | 61.8 | 13.1 |
| human IgG2 anti-mouse CD40 surface displayed antibody, L328Y (antibody, name in EU numbering, m1 with this Fc mutation (Eu numbering); copies: 2 + 2) light chain (with the P2A rest): DTVLTQSPALAVSPGERVTISCRASDSVSTLMHWYQQKPGQQPKLLIYLASHLESGVPARFSGSGSGTDFTLTIDPVEADDTATYYCQQSWNDPWTFGGGTKLELKRTVAAPSVFIFPPSDEQLKSGTASVVCLLNNFYPREAKVQWKVDNALQSGNSQESVTEQDSKDSTYSLSSTLTLSKADYEKHKVYACEVTHQGLSSPVTKSFNRGECGSGATNFSLLKQAGDVEENPG heavy chain: EVQLVESDGGLVQPGRSLKLPCAASGFTFSDYYMAWVRQAPTKGLEWVASISYDGSSTYYRDSVKGRFTISRDNAKSTLYLQMDSLRSEDTATYYCGRHSSYFDYWGQGVMVTVSSASTKGPSVFPLAPCSRSTSESTAALGCLVKDYFPEPVTVSWNSGALTSGVHTFPAVLQSSGLYSLSSVVTVPSSNFGTQTYTCNVDHKPSNTKVDKTVERKCCVECPPCPAPPVAGPSVFLFPPKPKDTLMISRTPEVTCVVVDVSHEDPEVQFNWYVDGVEVHNAKTKPREEQFNSTFRVVSVLTVVHQDWLNGKEYKCKVSNKGYPAPIEKTISKTKGQPREPQVYTLPPSREEMTKNQVSLTCLVKGFYPSDIAVEWESNGQPENNYKTTPPMLDSDGSFFLYSKLTVDKSRWQQGNVFSCSVMHEALHNHYTQKSLSLSPGKLEPPPSTVSNMATVAVLVVLGAAIVTGAVVAFVMKMRRRNTGGKGGDYALAPGSQTSDLSLPDCKVMVHDPHSLA | 3.38 | 2.26 |  |  |  |
| human IgG2 anti-mouse CD40 surface displayed antibody, Fc mutant P271G/S298D (antibody, name in EU numbering, as m1; positions are Eu numbers; copies: 2 + 2) light chain (with the P2A rest): DTVLTQSPALAVSPGERVTISCRASDSVSTLMHWYQQKPGQQPKLLIYLASHLESGVPARFSGSGSGTDFTLTIDPVEADDTATYYCQQSWNDPWTFGGGTKLELKRTVAAPSVFIFPPSDEQLKSGTASVVCLLNNFYPREAKVQWKVDNALQSGNSQESVTEQDSKDSTYSLSSTLTLSKADYEKHKVYACEVTHQGLSSPVTKSFNRGECGSGATNFSLLKQAGDVEENPG heavy chain: EVQLVESDGGLVQPGRSLKLPCAASGFTFSDYYMAWVRQAPTKGLEWVASISYDGSSTYYRDSVKGRFTISRDNAKSTLYLQMDSLRSEDTATYYCGRHSSYFDYWGQGVMVTVSSASTKGPSVFPLAPCSRSTSESTAALGCLVKDYFPEPVTVSWNSGALTSGVHTFPAVLQSSGLYSLSSVVTVPSSNFGTQTYTCNVDHKPSNTKVDKTVERKCCVECPPCPAPPVAGPSVFLFPPKPKDTLMISRTPEVTCVVVDVSHEDGEVQFNWYVDGVEVHNAKTKPREEQFNDTFRVVSVLTVVHQDWLNGKEYKCKVSNKGLPAPIEKTISKTKGQPREPQVYTLPPSREEMTKNQVSLTCLVKGFYPSDIAVEWESNGQPENNYKTTPPMLDSDGSFFLYSKLTVDKSRWQQGNVFSCSVMHEALHNHYTQKSLSLSPGKLEPPPSTVSNMATVAVLVVLGAAIVTGAVVAFVMKMRRRNTGGKGGDYALAPGSQTSDLSLPDCKVMVHDPHSLA |  |  | 6.78 | 9.06 | 1.9 |
| human IgG2 anti-mouse CD40 surface displayed antibody, Fc mutant P271G/P331C (antibody, name in EU numbering, as m1; positions are Eu numbers; copies: 2 + 2) light chain (with the P2A rest): DTVLTQSPALAVSPGERVTISCRASDSVSTLMHWYQQKPGQQPKLLIYLASHLESGVPARFSGSGSGTDFTLTIDPVEADDTATYYCQQSWNDPWTFGGGTKLELKRTVAAPSVFIFPPSDEQLKSGTASVVCLLNNFYPREAKVQWKVDNALQSGNSQESVTEQDSKDSTYSLSSTLTLSKADYEKHKVYACEVTHQGLSSPVTKSFNRGECGSGATNFSLLKQAGDVEENPG heavy chain: EVQLVESDGGLVQPGRSLKLPCAASGFTFSDYYMAWVRQAPTKGLEWVASISYDGSSTYYRDSVKGRFTISRDNAKSTLYLQMDSLRSEDTATYYCGRHSSYFDYWGQGVMVTVSSASTKGPSVFPLAPCSRSTSESTAALGCLVKDYFPEPVTVSWNSGALTSGVHTFPAVLQSSGLYSLSSVVTVPSSNFGTQTYTCNVDHKPSNTKVDKTVERKCCVECPPCPAPPVAGPSVFLFPPKPKDTLMISRTPEVTCVVVDVSHEDGEVQFNWYVDGVEVHNAKTKPREEQFNSTFRVVSVLTVVHQDWLNGKEYKCKVSNKGLPACIEKTISKTKGQPREPQVYTLPPSREEMTKNQVSLTCLVKGFYPSDIAVEWESNGQPENNYKTTPPMLDSDGSFFLYSKLTVDKSRWQQGNVFSCSVMHEALHNHYTQKSLSLSPGKLEPPPSTVSNMATVAVLVVLGAAIVTGAVVAFVMKMRRRNTGGKGGDYALAPGSQTSDLSLPDCKVMVHDPHSLA |  |  | 140 | 187 | 39.6 |
| human IgG2 anti-mouse CD40 surface displayed antibody, Fc mutant P271G/P331T (antibody, name in EU numbering, as m1; positions are Eu numbers; copies: 2 + 2) light chain (with the P2A rest): DTVLTQSPALAVSPGERVTISCRASDSVSTLMHWYQQKPGQQPKLLIYLASHLESGVPARFSGSGSGTDFTLTIDPVEADDTATYYCQQSWNDPWTFGGGTKLELKRTVAAPSVFIFPPSDEQLKSGTASVVCLLNNFYPREAKVQWKVDNALQSGNSQESVTEQDSKDSTYSLSSTLTLSKADYEKHKVYACEVTHQGLSSPVTKSFNRGECGSGATNFSLLKQAGDVEENPG heavy chain: EVQLVESDGGLVQPGRSLKLPCAASGFTFSDYYMAWVRQAPTKGLEWVASISYDGSSTYYRDSVKGRFTISRDNAKSTLYLQMDSLRSEDTATYYCGRHSSYFDYWGQGVMVTVSSASTKGPSVFPLAPCSRSTSESTAALGCLVKDYFPEPVTVSWNSGALTSGVHTFPAVLQSSGLYSLSSVVTVPSSNFGTQTYTCNVDHKPSNTKVDKTVERKCCVECPPCPAPPVAGPSVFLFPPKPKDTLMISRTPEVTCVVVDVSHEDGEVQFNWYVDGVEVHNAKTKPREEQFNSTFRVVSVLTVVHQDWLNGKEYKCKVSNKGLPATIEKTISKTKGQPREPQVYTLPPSREEMTKNQVSLTCLVKGFYPSDIAVEWESNGQPENNYKTTPPMLDSDGSFFLYSKLTVDKSRWQQGNVFSCSVMHEALHNHYTQKSLSLSPGKLEPPPSTVSNMATVAVLVVLGAAIVTGAVVAFVMKMRRRNTGGKGGDYALAPGSQTSDLSLPDCKVMVHDPHSLA |  |  | 32.3 | 43.2 | 9.1 |
